From the DeepSol protein solubility set come the findings set out here.

The nature of this series: soluble on expression in E. coli; label from the status in PepcDB or PDB records.
With “MGSDKIHHHHHHMGVFLDKSIKEVVDELNGRYFLPDIQREYVWLQNADGKKIEQLFDSILRGYPIGFFLFWKLPKEDIAKSDEQDSDKLNFQLYQFITNYDERKPHNEKIRIEQIKRDDLYIVLDGQQRLTSLYIGLKGTRTLKKKNARYDNPNAYEEKRLYLNLKHQPNMDNPEDNYEFEFHAQKPENDKKHWWFKVGDILESESHVWNYADEHGLKGNELKLLGDLHRAFHTKQLVSFFEETEKNLNKVLNIFIRVNSGGVKLSYSDLLMSILTASFSSDIREKMNELVDALKDKGFSNMG”, the “soluble on expression in E. coli” value is “not soluble”. On to “MKKEEMDVVSLRIIKLYFLGIRELNFPDYNKRFQQKDMELFIQLADMMENLPNLDEQLIYELEELKDYLFYVKTEKYSLTVHDMFLEMKSELEKII”, for which the “soluble on expression in E. coli” value is on record as “not soluble”. For the sequence “AEVLLGSSDGGLAFVPSDLSIASGEKITFKNNAGFPHNDLFDKKEVPAGVDVTKISMPEEDLLNAPGEEYSVTLTEKGTYKFYCAPHAGAGMVGKVTVN”, the “soluble on expression in E. coli” value is listed as “soluble”.

For “MSLKRTVDFSMFRCPLCDSSMDAASGKSLICTERGHTFDLSRHGYVNFLTKPVKTSYGAELFEARSRLIGECGFFDPLHDAIAELISHPKSGHEAFTILDSGCGEGSHLNALCGFDYAGKAAIGTGIDLSKDGILKASKAFKDLMWAVADVARAPFHDRQFDVVLSIFSPSNYAEFHRLLKNDGMLIKVVPRSDYLIELRQFLYTDSPRRTYSNTAAVERFTANAAHSRPVRLRYVKTLDQQAIHWLLKMTPLAWSAPKDRVSLLKEMKSADITVDVDILIGMKEGHHHHHH”, the “soluble on expression in E. coli” value is “soluble”. To “NYASHTERQILEVSPVVADEALAQALECKPGTTWLRVRMLRVEKDAAHTPLCWNDAYMLPDVGQRIVGKIPNGSGLLCRIIENEAGIAVADIKQSIGATAIEGEMASRLGVAPGTPGLEITRLYVDRANTPFLITVNTYSAHKFR” belongs “not soluble”; to “MDLALFDLDETLISDDSTGLWIRWLVNEGLAPFELSEQEQTLMTQYYQGQLSMAGYMAATLSPLVGKHTAEVAGWVEHFIAHDILPRIYPQALEKLAWHRDRGDYIVIISASGEHLVTPIAKHFAADTALSIGVTVENDRYTGQTYGTLTYQKGKVDRLNQWLSASPQLNFKRSYGYSDSINDQPLLEYVDHAAVINPGAELIDLAVLHQWDIHHW”, “not soluble”. With “MAVQRYFVSGQAQQGGIVAISGDDAHHIARVMRMKPGDGIICVFPDGRTAVCEIEQIANEHVQARIVQWKEERSELPVRIYIAQGLPKGEKWELVIQKGTELGAAGFLPFEAARSVVKWDAKKAEKKVERWKKIAKEAAEQAERTVVPDVRAPLSFVELLAFGQTVDVRLFAYEKEARNARHAALPALLSRLRPGGALLAVFGPEGGFSPEEAEQLRQHGFSPCSLGPRILRTETAPLYLLSAASYEWELRAGGEAARGR”, the “soluble on expression in E. coli” value was “not soluble”. Take “MQEYTNHSDTTFALRNISFRVPGRTLLHPLSLTFPAGKVTGLIGHNGSGKSTLLKMLGRHQPPSEGEILLDAQPLESWSSKAFARKVAYLPQQLPPAEGMTVRELVAIGRYPWHGALGRFGAADREKVEEAISLVGLKPLAHRLVDSLSGGERQRAWIAMLVAQDSRCLLLDEPTSALDIAHQVDVLSLVHRLSQERGLTVIAVLHDINMAARYCDYLVALRGGEMIAQGTPAEIMRGETLEMIYGIPMGILPHPAGAAPVSFVY”: the “soluble on expression in E. coli” value is given as “soluble”. As to “MGSDKIHHHHHHMTKNNIAVKVDHVSKYFKLPVESTQSLRTALVNRFKGIKGYKKQHVLRDIDFEVEKGDFFGIVGRNGSGKSTLLKIISQIYVPEQGKVTVDGKLVSFIELGVGFNPELTGRENVYMNGAMLGFTTEEVDTMYQDIVDFAELQDFMNQKLKNYSSGMQVRLAFSVAIKAQGDVLILDEVLAVGDEAFQRKCNDYFLERKNSGKTTILVTHDMAAVKKYCNKAVLIDDGLIKAIGEPFDVANQYSLDNTDQIVEDKQEEEAAVQEEEQIVVDNLEVKLLSANRMTPRDSIRFEISYNVLADVGTYIALSLTDVDRNIWIYNDNSLDYLSSGSGKKRVFYECHLKSLNDIKLKLEVTVRDKQGQMLAFSSATNTPIISINRDDLEGDDKSAMDSASGLIQRNGQWQFS”, the “soluble on expression in E. coli” value is “not soluble”. For “MSLKSIILEDANAKLREDAHTFVFDGHAGVKGRVDFARLGSNNPIEDDWDLKIAKGVGGTKTLYAGVYDGHAGWATSQVLRNALVPYVSGALSSLTPTTSTELVDDAIQKAFVRLDNRIFDTALKAVESGLDQGTASVISAVAPAIAGSCALLTMYEPVTSTLRTAVAGDSRAVRGAWSSNANKYETDILSIDQTGFNQLEVERLDKEHPGQLHSMLNLDSGRLFGLAVTRAFGDHRLKWPAKVIRKVQDDYYGTPPRPNYTTPPYLTARPEVTTRKIQTEDFVILGSDGLWDMISNEDAVTCISRWLSAKKSGKPEPFKETKFEGKLEDGWQATPEHHVIEDLDNAAVCLVKNAFGGSRRGLFLGAMTTYAPMSRNVRDDITVQIIFFKDPYEKEGHHHHHH”, the “soluble on expression in E. coli” value is “soluble”.

With “MRTLYPEITPYQQGSLKVDDRHTLYFEQCGNPHGKPVVMLHGGPGGGCNDKMRRFHDPAKYRIVLFDQRGSGRSTPHADLVDNTTWDLVADIERLRTHLGVDRWQVFGGSWGSTLALAYAQTHPQQVTELVLRGIFLLRRFELEWFYQEGASRLFPDAWEHYLNAIPPVERADLMSAFHRRLTSDDEATRLAAAKAWSVWEGATSFLHVDEDFVTGHEDAHFALAFARIENHYFVNGGFFEVEDQLLRDAHRIADIPGVIVHGRYDVVCPLQSAWDLHKAWPKAQLQISPASGHSAFEPENVDALVRATDGFA”, the “soluble on expression in E. coli” value was “soluble”.

Regarding “MGSDKIHHHHHHMNFIDTLKSVDLILSTGEVPLIVGESGIGKTALANKLAKENDWSLIVIDGNLLKEGEIGGLPTIESYVGVNSNGYKTEKKTTVYAVHNKLREIDEEISKSKTVLLFIDEINRCEHTVQQELMNLILNREINGYKLHDDVKILAAMNPSSKYGSDFDYQVVDMDAAQENRFVWLNMESDHTQWIKWAIDEGIERKVIEFISTFPEYLHKINEDDVRATPRSYERVSKIYKVYKEKNNSIPRAVFLNVVKGNVGKVIAEEFISFIESNFEPLISYEDVFLGESIDESIVERVKNESHTRLYLSAMNILKDLELNIKNDKYESNHYINRFIEFLKMYPVDLMIGIMKDIRNSYIEVYKKAIENEEFVKSYFESYSLIRG”, the “soluble on expression in E. coli” value was “not soluble”.

Regarding “MLIPSKLSRPVRLEHTVVRERLLAKLSGANNYRLVLITSPAGYGKTTLISQWAAGKNDLGWFSLDEGDNQQERFASYLIAAIQQATGNHCAASEAMVQKRQYASLSSLFAQLFIELADWQRPLYLVIDDYHLINNPVIHDAMRFFLRHQPENMTLVVLSRNLPQLGIANLRVRDQLLEIGSQQLAFTHQEAKQFFDCRLTSPIEADDSSRLCDDVAGWATALQLIALSARQNNSSAQHSARRFAGINASHLSDYLVDEVLDNVDARTRNFLLKSSLLRSMNDALIVRVTGEENGQMQLEEIERQGLFLQRMDDSGEWFRYHPLFGSFLRQRCQWELAVELPEIHRAAAESWMAQGFPSEAIHHALAAGDAKMLRDILLNHAWGMFNHSELGLLEQSLAALPWSNLLENPRLILLQAWLMQSQHRYSEVNTLLARAEQEMSVEMDTAMHGDFNALRAQVAINDGDQDEAERLSMVALEELPLANYYSRIVATSVHGEVLHCKGKLTKSLAVMQQTEQMARRHDVWHYALWSIIQQSEILFAQGFLQAAW”, the “soluble on expression in E. coli” value is “not soluble”. The result for “MGSDKIHHHHHHMLHQANRTGASTRVEFILPDSIEGYIPLKADLHLHTYFSDGHLSPSARVREAWLDGLDAISVTDHIEYHPADTDMIGYLGATLPDGIEAHNVNKKTNVKPKQDLNKSVELTKKAAVSYGLLIIPGIEITREPKGIGHYNALFTTDNNGIYDPDPLTAIRNAKAQGALVMHNHPGWRRESIQHPDFELKAYGEGLIDGIEANNGTAFCPGTIDRAKEDNLFVASTTDLHDTSFEEYIGRGLRRDMTIILAKDRSLDAMRDALENRRTIGYGAGGTLMGQEYLLRQLFMSCVSISPVNGHNIQLKNPTSLRFIIHPDGKNPIVLPEFSSIILSDKDRGFSVDNAWTGADSFLRISL” reads “not soluble”; that for “MAKKTKQRRPMGFPPGPPGLPFIGNIYSLAASSELPHVYMRKQSQVYGEIFSLDLGGISTVVLNGYDVVKECLVHQSEIFADRPCLPLFMKMTKMGGLLNSRYGRGWVDHRRLAVNSFRYFGYGQKSFESKILEETKFFNDAIETYKGRPFDFKQLITNAVSNITNLIIFGERFTYEDTDFQHMIELFSENVELAASASVFLYNAFPWIGILPFGKHQQLFRNAAVVYDFLSRLIEKASVNRKPQLPQHFVDAYLDEMDQGKNDPSSTFSKENLIFSVGELIIAGTETTTNVLRWAILFMALYPNIQGQVQKEIDLIMGPNGKPSWDDKCKMPYTEAVLHEVLRFCNIVPLGIFHATSEDAVVRGYSIPKGTTVITNLYSVHFDEKYWRDPEVFHPERFLDSSGYFAKKEALVPFSLGRRHCLGEHLARMEMFLFFTALLQRFHLHFPHELVPDLKPRLGMTLQPQPYLICAERRHHHHHH”, “soluble”; that for “TLTTPPLELSDAIEYILMPLKAVHFPVYEVALMLSIALRFVPTLMDETEKIMNAQRARGVDFGEGNIFQQMRAVVPLLIPLFVSSFNRAEDLATAMEARGYQGGEGRSKYRILKWHQRDTWATGCFAILTVALIFLRA”, “not soluble”.

With “MGRSPCFFKSFKGKLHKDRSPDPSTLASPHPSTEARRPVEAGSAEWTWGWMKRLPPASLSPGIAMSCYSGDSMLQKYKVKNAYRLHWQGREEPGASTFASLVFQ”, the “soluble on expression in E. coli” value was “soluble”. Consider “MGSDKIHHHHHHVVAVNRAVFLDRDGVINKDHGYVHQVDDFEYIEGVFEACLALKKMGYKLVVVTNQSGIARGMYSEDQFHSLTEWMDWNFADKGVDLDGIYYCPHHAEKGMGEYKVDCDCRKPKPGMLNDAAKFLKVDLSQSVMVGDKADDMQAAKAAGVPTRILVRSGKVIADSSDATIVLDSIADVPDYLKA”, for which the “soluble on expression in E. coli” value is recorded as “not soluble”. “MSLKIAVVQFPGSNCERETMLAVQRAGMTPVEFLWNDSSQKLREMDGYIIIGGFSYEDRSRAGIIAALDPVMKEIKLQSELGKPVLGICNGAQILVETGLVPGLKNYQIGMALTENKRIQDGKILGTGFYNSWIHMRTGDRVRQNAFTRYLSKDSVLSIPAAHAEGRFVMPVKLLQEIEEEGLNAFQYCDAQGNRDDNFPVNPNGSLRNIAAIINKAGNVMAIMPHPERTFAGDPIFHSMKEYIKEKKTFKQQTLSYQPEPVKIIPYDKKDNAHELIVKLIITDNAALTVQNTLRQLGIPVTVNRMMYWHVDTNFPETIEKIKQTGVLYNDRKEYLVTSEHIFSSAAKAFLVKSKDDMIGQQKLQMLRDHFSIDGVDAIHHGVLWMFSSENVKIQELAESILATNIIFNPNAHICYEYQCPEGHHHHHH”: the “soluble on expression in E. coli” value is listed as “soluble”. The result for “SNATAYIIVGLTPKDAEKLQQYGARVASTLAKYSGEVLVKGSVEQLHGKFEHKAQVILEFPSREDAYNWYHSEEYQALISTRDLGMDSQFQLIG” reads “soluble”; that for “TDINSLRTRLRSGEHAFADTLAFIADGYDYQPQPFRNGDVDNAAGQNEGSCKTLGLALLEGLSDEEALLAFGEHYRSVQATPEGSDHGNIRALIKHGLAGVTFEGEPLKRK”, “not soluble”.
